From article PMC8884700, “Selection and Modelling of a New Single-Domain Intrabody Against TDP-43” (Frontiers in Molecular Biosciences, 2021)
Numbering of substitutions follows the chain as printed.

What was measured:
[1] = molecular target: T1, LexA-TDP-43 full length (residues 1-414) (Homo sapiens (species of cDNA not …, UniProt Q13148)); assay: two-hybrid; IACT / in vivo epitope mapping in L40 yeast; LexA-fused bait, VP16-fused VHH prey; growth on SD-WHL (HIS3); liquid beta-gal (LacZ) for the full-length bait; conditions: partners not purified
T1 construct: also called TDP-43 bait; source: yeast two-hybrid fusion (L40 yeast, pMicBD1 bait plasmid)
T1 sequence (Q13148 whole entry, the tested form may be a part): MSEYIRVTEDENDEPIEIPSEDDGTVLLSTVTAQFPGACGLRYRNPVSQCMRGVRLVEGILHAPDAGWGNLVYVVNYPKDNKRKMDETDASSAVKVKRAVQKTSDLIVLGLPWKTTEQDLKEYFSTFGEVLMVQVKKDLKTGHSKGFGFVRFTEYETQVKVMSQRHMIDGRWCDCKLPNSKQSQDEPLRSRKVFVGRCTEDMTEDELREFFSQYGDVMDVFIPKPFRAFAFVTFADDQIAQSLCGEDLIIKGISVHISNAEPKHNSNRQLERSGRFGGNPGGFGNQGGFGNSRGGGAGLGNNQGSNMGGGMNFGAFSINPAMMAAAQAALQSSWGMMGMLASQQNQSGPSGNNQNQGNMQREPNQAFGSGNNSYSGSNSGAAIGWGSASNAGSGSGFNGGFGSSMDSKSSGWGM

[2] = molecular target: T2, LexA-N-term + RRM1-2 (residues 1-258) (Homo sapiens (species of cDNA not …, UniProt Q13148)); assay: as above; conditions: partners not purified
T2 construct: TDP-43, residues 1-258 (N-terminus plus RRM1 and RRM2); also called LexA- N-Term + RRM1-2 (1-258); N-terminal half of TDP-43; source: yeast two-hybrid fusion (L40 yeast)
T2 sequence (Q13148 1-258): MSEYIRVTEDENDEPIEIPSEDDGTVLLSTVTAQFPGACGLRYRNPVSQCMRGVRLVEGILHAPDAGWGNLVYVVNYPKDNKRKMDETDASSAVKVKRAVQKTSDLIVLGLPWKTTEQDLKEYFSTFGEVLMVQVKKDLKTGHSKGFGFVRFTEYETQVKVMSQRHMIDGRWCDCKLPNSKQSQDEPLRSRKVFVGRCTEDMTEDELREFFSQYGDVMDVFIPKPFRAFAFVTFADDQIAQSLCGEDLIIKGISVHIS

LexA-RRM2 (192-258) = molecular target: T3, LexA-RRM2 (192-258) (Homo sapiens (species of cDNA not …, UniProt Q13148)); assay: as above; conditions: partners not purified
T3 construct: TDP-43, RRM2, residues 192-258; also called RRM2 bait; source: yeast two-hybrid fusion (L40 yeast)
T3 sequence (Q13148 192-258): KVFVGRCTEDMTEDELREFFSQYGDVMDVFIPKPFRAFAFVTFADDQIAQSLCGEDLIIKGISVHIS

[3] = molecular target: T4, LexA fragment of RRMs (160-208) (Homo sapiens (species of cDNA not …, UniProt Q13148)); assay: as above; conditions: partners not purified
T4 construct: TDP-43, residues 160-208, containing the linker between RRM1 and RRM2; also called RRMs bait; source: yeast two-hybrid fusion (L40 yeast)
T4 chain: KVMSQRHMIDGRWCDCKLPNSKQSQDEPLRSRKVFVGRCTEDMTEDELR

purified RRM2 of TDP-43 = molecular target: T5, purified RRM2 of TDP-43 (Homo sapiens, UniProt Q13148); assay: ELISA; indirect ELISA; TDP-43 fragments coated at 1 uM in carbonate buffer pH 9.6; VHH5 added at 1, 3, 5 and 10 uM, 2 h, room temperature; detected with anti-camelid VHH [HRP]; conditions: both partners purified
T5 construct: TDP-43, RRM2 domain; source: purified
T5 sequence (Q13148 whole entry, looked up, the tested form may be a part): as the sequence (Q13148 whole entry, the tested form may be a part) above

[4] = molecular target: T6, purified RRM1-2 of TDP-43 (tandem RRM domains) (Homo sapiens, UniProt Q13148); assay: ELISA; sandwich ELISA; VHH5 coated at 1, 3, 5 and 10 uM in carbonate buffer pH 9.6; TDP-43 fragments (10 ug/ml) added in PBS/BSA 1% pH 7.4, 2 h, room temperature; detected with rabbit anti-TDP-43 polyclonal and HRP secondary antibody; conditions: both partners purified
T6 construct: TDP-43, tandem RRM1 and RRM2 domains; Production and limits of the purified construct are not described; The docking used PDB 4bs2 (human TDP-43 tandem RRM1-2) as the putative antigen; source: purified

purified RRM1 of TDP-43 = molecular target: T7, purified RRM1 of TDP-43 (Homo sapiens, UniProt Q13148); assay: as above; conditions: both partners purified
T7 construct: TDP-43, RRM1 domain; source: purified

Measured: binding result

B1: anti-TDP-43 VHH5 intrabody (VP16 activation domain fusion, prey in pLinker220) (VHH)
VHH: KVQLVESGGGSVQIGGSLRLSCRISEGSGNKYVMAWFRQAPGQEREFVGVISWSGTRTHYADSVRGRFTISRMDNTAYLQMDSLTPDDSGVYYCAASVSVPPFLELTAAHFGSWGQGTQVRVGS
notes: selected from a naive llama VHH SPLINT library; The modelling sections number residues 1-135, with H3 at 94-114; source: yeast two-hybrid fusion (L40 yeast, pLinker220 prey plasmid)
binds: [1] | [2] | LexA-RRM2 (192-258) | [3]

B2: VHH5-I15A_M75K (VHH)
VHH: B1 VHH with I14A, M73K
notes: also called purified VHH5; double mutant; not shown: SUMO, N-terminal, cleaved
binds: purified RRM2 of TDP-43 | [4] | purified RRM1 of TDP-43
